This assay deals with T1, Biotin-BH4-Bcl-XL (Homo sapiens (Human), UniProt Q07817, biotin on the N-terminus (also used without the biotin tag)).
T1 chain: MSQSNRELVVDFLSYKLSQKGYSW
In words: SPR.

B1: GST-tagged IP3R1 domain 3 (mouse IP3R1, a.a. 923-1581) (protein)
chain: SIHGVGELMTQVVLRGGGFLPMTPMAAAPEGNVKQAEPEKEDIMVMDTKLKIIEILQFILNVRLDYRISCLLCIFKREFDESNSQSSETSSGNSSQEGPSNVPGALDFEHIEEQAEGIFGGSEENTPLDLDDHGGRTFLRVLLHLTMHDYPPLVSGALQLLFRHFSQRQEVLQAFKQVQLLVTSQDVDNYKQIKQDLDQLRSIVEKSELWVYKGQGPDEPMDGASGENEHKKTEEGTSKPLKHESTSSYNYRVVKEILIRLSKLCVQESASVRKSRKQQQRLLRNMGAHAVVLELLQIPYEKAEDTKMQEIMRLAHEFLQNFCAGNQQNQALLHKHINLFLNPGILEAVTMQHIFMNNFQLCSEINERVVQHFVHCIETHGRNVQYIKFLQTIVKAEGKFIKKCQDMVMAELVNSGEDVLVFYNDRASFQTLIQMMRSERDRMDENSPLMYHIHLVELLAVCTEGKNVYTEIKCNSLLPLDDIVRVVTHEDCIPEVKIAYINFLNHCYVDTEVEMKEIYTSNHMWKLFENFLVDICRACNNTSDRKHADSILEKYVTEIVMSIVTTFFSSPFSDQSTTLQTRQPVFVQLLQGVFRVYHCNWLMPSQKASVESCIRVLSDVAKSRAIAIPVDLDSQVNNLFLKSHNIVQKTALNWRLSAR
Take B1: the binding result is reported as “no binding”.

These data come from publication PMC4397538 (2015).
